# B1: WASH complex subunit 3 (Homo sapiens), Q9Y3C0 (parent)
# chain: MDEDGLPLMGSGIDLTKVPAIQQKRTVAFLNQFVVHTVQFLNRFSTVCEEKLADLSLRIQQIETTLNILDAKLSSIPGLDDVTVEVSPLNVTSVTNGAHPEATSEQPQQNSTQDSGLQESEVSAENILTVAKDPRYARYLKMVQVGVPVMAIRNKMISEGLDPDLLERPDAPVPDGESEKTVEESSDSESSFSD
# partner: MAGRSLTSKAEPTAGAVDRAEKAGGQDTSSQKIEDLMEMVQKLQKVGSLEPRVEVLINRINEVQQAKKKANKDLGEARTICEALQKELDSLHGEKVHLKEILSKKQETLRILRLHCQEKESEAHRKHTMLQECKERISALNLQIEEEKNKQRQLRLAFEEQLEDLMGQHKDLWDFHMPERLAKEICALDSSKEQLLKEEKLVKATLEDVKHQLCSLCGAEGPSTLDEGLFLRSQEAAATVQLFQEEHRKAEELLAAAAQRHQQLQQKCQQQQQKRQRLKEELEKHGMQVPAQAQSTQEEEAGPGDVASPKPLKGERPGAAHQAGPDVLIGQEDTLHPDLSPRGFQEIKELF
# B2: Nucleoporin p54 (Homo sapiens), Q7Z3B4 (parent)
# chain: MAFNFGAPSGTSGTAAATAAPAGGFGGFGTTSTTAGSAFSFSAPTNTGTTGLFGGTQNKGFGFGTGFGTTTGTSTGLGTGLGTGLGFGGFNTQQQQQTTLGGLFSQPTQAPTQSNQLINTASALSAPTLLGDERDAILAKWNQLQAFWGTGKGYFNNNIPPVEFTQENPFCRFKAVGYSCMPSNKDEDGLVVLVFNKKETEIRSQQQQLVESLHKVLGGNQTLTVNVEGTKTLPDDQTEVVIYVVERSPNGTSRRVPATTLYAHFEQANIKTQLQQLGVTLSMTRTELSPAQIKQLLQNPPAGVDPIIWEQAKVDNPDSEKLIPVPMVGFKELLRRLKVQDQMTKQHQTRLDIISEDISELQKNQTTSVAKIAQYKRKLMDLSHRTLQVLIKQEIQRKSGYAIQADEEQLRVQLDTIQGELNAPTQFKGRLNELMSQIRMQNHFGAVRSEERYYIDADLLREIKQHLKQQQEGLSHLISIIKDDLEDIKLVEHGLNETIHIRGGVFS
# partner: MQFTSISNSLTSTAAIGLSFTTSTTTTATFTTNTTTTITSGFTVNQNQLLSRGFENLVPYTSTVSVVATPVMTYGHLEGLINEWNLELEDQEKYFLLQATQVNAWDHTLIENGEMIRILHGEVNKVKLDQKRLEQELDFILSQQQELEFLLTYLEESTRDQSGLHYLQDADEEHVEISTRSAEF
# B3: Mediator of RNA polymerase II transcription subunit 20 (Homo sapiens), Q9H944 (parent)
# chain: MGVTCVSQMPVAEGKSVQQTVELLTRKLEMLGAEKQGTFCVDCETYHTAASTLGSQGQTGKLMYVMHNSEYPLSCFALFENGPCLIADTNFDVLMVKLKGFFQSAKASKIETRGTRYQYCDFLVKVGTVTMGPSARGISVEVEYGPCVVASDCWSLLLEFLQSFLGSHTPGAPAVFGNRHDAVYGPADTMVQYMELFNKIRKQQQVPVAGIR
# partner: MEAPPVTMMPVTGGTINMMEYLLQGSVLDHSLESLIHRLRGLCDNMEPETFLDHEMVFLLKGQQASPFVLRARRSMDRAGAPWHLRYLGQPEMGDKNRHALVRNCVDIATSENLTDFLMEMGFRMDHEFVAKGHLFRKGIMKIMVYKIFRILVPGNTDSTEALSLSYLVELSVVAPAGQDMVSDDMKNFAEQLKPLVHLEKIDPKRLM
# B4: Isoform 1 of EF-hand domain-containing family member C2 (Homo sapiens), Q5JST6-1 (parent)
# chain: MALPLLPGNSFNRNVGKEKFHKSQHWGFCNNVMMLVSDEKPGIGGEPLLGQKIKPKCSIYPKGDGSDVPSWVAFDKQVLSFDAYLEEEVLDKSQTNYRIRYYKIYFYPEDDTIQVNEPEVKNSGLLQGTSIRRHRITLPPPDEDQFYTVYHFNVGTEVVFYGRTFKIYDCDAFTRNFLRKIGVKVNPPVQCPEDPYMKIRREVVEHVEPLRPYESLDTLKQFLQYHGKILCFFCLWDDSVSMFGDRRELILHYFLCDDTIEIKELLPHSSGRDALKMFLRRSKLPKNCPPRVYQPGQITDRAVLNSYGDFIKNQADGYLFDRYKLGKVDQEFYKDSDLSLGVTINVWGRKVLLYDCDEFTKSYYKSKYGIENFTSVSCKPPSPPPKIERKFPPYNGFGSEEDSLRNCIDLKPTPHRRNFKKFMEKDSYGSKSNILRFFAKLVTDKCVDLDRMFVISYYLGDDTISVFEPIERNSGIAGGMFLKRSRVKKPGQEVFKSELSEYIKAEELYIGVTVNVNGYLFRLLNADEYTLNYMEQNTDKYPFSNLKLALQKLKQEEGKSRELKQVFKAADSKHTNMVDYNTFRDILMSLTVGNLAEQEFVTIARHYRVPEGTCSDMDFLIALAHEKFKKNMFENFDTFIYSCVYEDREKKNVLPTKDIKRLCKSSRLPLSDDLLESLLSRFEDSEKQIDYKSFFSALNWRKNPVPELQPASYLKERCEDVWLGMPSPIPAKYIDYWTFLKDAFGLEEE
# partner: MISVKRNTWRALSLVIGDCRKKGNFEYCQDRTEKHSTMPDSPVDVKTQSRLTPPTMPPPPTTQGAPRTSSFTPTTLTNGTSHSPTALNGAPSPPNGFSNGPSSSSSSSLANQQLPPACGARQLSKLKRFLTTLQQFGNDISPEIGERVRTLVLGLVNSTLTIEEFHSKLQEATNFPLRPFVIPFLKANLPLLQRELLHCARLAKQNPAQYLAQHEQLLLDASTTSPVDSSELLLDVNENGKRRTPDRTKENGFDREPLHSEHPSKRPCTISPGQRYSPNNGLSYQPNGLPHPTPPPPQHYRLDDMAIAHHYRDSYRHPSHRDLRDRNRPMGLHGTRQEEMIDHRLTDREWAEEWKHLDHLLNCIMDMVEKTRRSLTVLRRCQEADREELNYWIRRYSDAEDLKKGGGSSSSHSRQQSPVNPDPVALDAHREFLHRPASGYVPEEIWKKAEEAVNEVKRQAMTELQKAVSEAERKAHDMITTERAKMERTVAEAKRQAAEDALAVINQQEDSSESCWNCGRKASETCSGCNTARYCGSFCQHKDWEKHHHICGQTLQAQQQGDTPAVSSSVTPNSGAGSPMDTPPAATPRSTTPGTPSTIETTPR
# B5: Dynein light chain 2, cytoplasmic (Homo sapiens), Q96FJ2 (parent)
# chain: MSDRKAVIKNADMSEDMQQDAVDCATQAMEKYNIEKDIAAYIKKEFDKKYNPTWHCIVGRNFGSYVTHETKHFIYFYLGQVAILLFKSG
# partner: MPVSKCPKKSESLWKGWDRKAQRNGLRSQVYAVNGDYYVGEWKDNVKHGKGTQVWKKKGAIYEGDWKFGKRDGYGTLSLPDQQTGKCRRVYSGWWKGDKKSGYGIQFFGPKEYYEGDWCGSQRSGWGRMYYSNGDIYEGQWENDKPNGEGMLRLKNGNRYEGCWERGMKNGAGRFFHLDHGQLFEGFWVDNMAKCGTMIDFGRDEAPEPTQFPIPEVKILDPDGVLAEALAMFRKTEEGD
# B6: Neurogenin-3 (Homo sapiens), Q9Y4Z2 (parent)
# chain: MTPQPSGAPTVQVTRETERSFPRASEDEVTCPTSAPPSPTRTRGNCAEAEEGGCRGAPRKLRARRGGRSRPKSELALSKQRRSRRKKANDRERNRMHNLNSALDALRGVLPTFPDDAKLTKIETLRFAHNYIWALTQTLRIADHSLYALEPPAPHCGELGSPGGSPGDWGSLYSPVSQAGSLSPAASLEERPGLLGATFSACLSPGSLAFSDFL
# B7: Peroxisomal biogenesis factor 19 (Homo sapiens), P40855 (parent)
# chain: MAAAEEGCSVGAEADRELEELLESALDDFDKAKPSPAPPSTTTAPDASGPQKRSPGDTAKDALFASQEKFFQELFDSELASQATAEFEKAMKELAEEEPHLVEQFQKLSEAAGRVGSDMTSQQEFTSCLKETLSGLAKNATDLQNSSMSEEELTKAMEGLGMDEGDGEGNILPIMQSIMQNLLSKDVLYPSLKEITEKYPEWLQSHRESLPPEQFEKYQEQHSVMCKICEQFEAETPTDSETTQKARFEMVLDLMQQLQDLGHPPKELAGEMPPGLNFDLDALNLSGPPGASGEQCLIM
# partner: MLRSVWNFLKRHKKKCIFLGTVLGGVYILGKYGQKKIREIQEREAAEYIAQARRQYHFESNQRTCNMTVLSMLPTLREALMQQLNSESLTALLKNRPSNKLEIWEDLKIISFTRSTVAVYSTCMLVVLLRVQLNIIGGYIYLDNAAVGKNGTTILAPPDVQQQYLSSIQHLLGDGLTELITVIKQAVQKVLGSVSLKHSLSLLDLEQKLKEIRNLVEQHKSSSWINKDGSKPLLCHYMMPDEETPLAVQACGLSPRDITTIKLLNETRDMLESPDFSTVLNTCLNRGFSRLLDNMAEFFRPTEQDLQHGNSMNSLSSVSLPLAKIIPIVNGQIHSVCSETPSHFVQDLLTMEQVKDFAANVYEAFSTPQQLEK
# Variants of: B1
# Settings: with syce1_human SYCE1, Q8N0S2
row,Variant,effect of a mutation on the interaction
1,F44L,with no effect

# Variants of: B2
# Settings: with NUP62CL
row,Variant,effect of a mutation on the interaction
1,N250S,with no effect
2,R385K,with no effect

# Variants of: B2
# Settings: with NUP62CL
# Remark: another data set of the same source
row,Variant,effect of a mutation on the interaction
1,T416A,with no effect

# Variants of: B3
# Settings: with med18_human MED18, Q9BUE0
row,Variant,effect of a mutation on the interaction
1,A50T,with no effect

# Variants of: B4
# Settings: with mtg8_human RUNX1T1, Q06455
row,Variant,effect of a mutation on the interaction
1,V376I,with no effect

# Variants of: B4
# Settings: with mtg8_human RUNX1T1, Q06455
# Remark: another data set of the same source
row,Variant,effect of a mutation on the interaction
1,N31S,disrupting interaction strength

# Variants of: B5
# Settings: with morn3_human MORN3, Q6PF18
row,Variant,effect of a mutation on the interaction
1,N33S,with no effect

# Variants of: B6
# Settings: with htf4_human TCF12, Q99081
# htf4_human TCF12, Q99081, sequence (Q99081 whole entry): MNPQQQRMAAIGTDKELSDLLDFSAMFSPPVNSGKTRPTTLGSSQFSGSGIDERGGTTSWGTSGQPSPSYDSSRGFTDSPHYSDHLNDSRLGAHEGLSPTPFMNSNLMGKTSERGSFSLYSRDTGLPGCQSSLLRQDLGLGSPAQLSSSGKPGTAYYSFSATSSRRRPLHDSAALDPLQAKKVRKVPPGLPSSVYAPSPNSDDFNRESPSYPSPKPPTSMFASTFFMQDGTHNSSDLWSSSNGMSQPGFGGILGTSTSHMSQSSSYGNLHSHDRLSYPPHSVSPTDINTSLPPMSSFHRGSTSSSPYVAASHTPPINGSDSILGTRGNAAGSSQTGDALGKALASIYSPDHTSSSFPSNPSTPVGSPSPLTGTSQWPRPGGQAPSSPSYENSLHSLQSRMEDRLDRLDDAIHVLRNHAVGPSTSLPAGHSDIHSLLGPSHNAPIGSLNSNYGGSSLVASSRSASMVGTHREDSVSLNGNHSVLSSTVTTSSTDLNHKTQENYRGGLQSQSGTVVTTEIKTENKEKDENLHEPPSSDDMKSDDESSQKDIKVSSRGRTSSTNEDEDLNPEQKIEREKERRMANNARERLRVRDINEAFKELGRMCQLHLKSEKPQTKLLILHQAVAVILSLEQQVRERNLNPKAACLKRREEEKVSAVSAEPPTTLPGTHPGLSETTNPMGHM
row,Variant,effect of a mutation on the interaction
1,F199S,with no effect

# Variants of: B7
# Settings: with pex3_human PEX3, P56589
row,Variant,effect of a mutation on the interaction
1,E6K,with no effect
2,L21V,with no effect
3,L26I,with no effect

# Reference: IntAct's records for PubMed 31515488
